Experiment: label from the status in PepcDB records

Sequence | protein production
MVYLLPFFTVMIWGGNSIVNKMAASTIEPSAMSFYRWFVAMVLLTPFCLPAVIKQRHVIRPYLTKLAFLALLGMVLNQSLGYYAGLTTTASNMALITSLVPLISVFLSVPLLGKSVSMLSIVGGVISLGGLAFMLGHGDVTYFLHQDMTQGDSLMLLAALVYAAYCVLLKRWKMPFNSLTLVYMQGFFSVIMLTPLWLSSEQLLPSQEALPLIAYAGIAASIFAPLMWVKAIDLIGADSSAMFMNLMPVVSVALASTLLGEEIHVYHIIGGLMVISGVILSQIKVRKKQDLVVSESLTTTTR | failed
MVYVAVLANIAGNFPALTAALEKIEELKEEGYEIEKYYILGNIVGLFPYPREVIEAIKNLAKTSNVKVIRGKYDQLIAMSDPHAGDPKYIDKLEIPDHLKATLKYTWEKLGHEGREYLRDLPIYLVDKIGKNEIFGVYGSPVNPFDGEILPDQPTSYYEAIMRPVKEYEMLLVASPRYPLDAMTMYGRVVCPGSIGFPPAREHKATFALVDAETLKVKFIEVEYDKKIIEDRIKLEKLPEEVIKILYHGGKA | not failed
MVYVFQGIGGYIILFLLMIGEGIGLPLPSEVIMPLVGYYSYLGSISLYLGVIVGTLGSLVGSIIAYIIGYKLGLAFLKRYGKYILIDEGKIEALHNWFLRYGNMAVFGFRFIPGLRALISYPAGIGQMKILKFLGFTFLGHTIWDIVLALIGYQLANQINFVITQAEKLGNYLFILVIVIIVIYILWRIFWKRK | failed
MWDSENIEELSLVIGIGLDKPDDENLELTQQILVPKIISAKEGSSSDPTQLSITKGKTVHQMMRTSALKHKPTFSQHLRLILLSKSVIADQIGMDAIINQFVRDNGTRRSSYVFITNGRTKDIFNMNDEGEPASNVIYDLTENNKVTIRTMEPVTLGEISEHLTSDDSFLIPHVGKENGKLAINGASIIKNKLWHRDLTPIEVQNISLFSGTVEGGVIDLKRDGHLFSYEVYSSNRKIKTAYKDGKFKFTVTRNIEGRLSEDWNPNEDSFKDSYIKSIEKTVEKRVHETVTSFITEKLQKEIKADVTGLGNEVRIHYPQKWKKISRKWDDDYFSNAEIDYRVNVIVRDFGTKGANKLEHHHHHH | not failed
MWEAIKDRETGRIRSNSFANRFKSRRILSLQLSNRKDFVSPHRGSVNSLQVDLTEGRYLLSGAADGSAAVFDVQRATDYEASGLIAKHKCIFTVDKQHENGHKYAISSAIWYPIDTGLFITGSFDHYLKVWDTNTAQAVVDFKMPGKVYRTAMSSMAMSHTLIAAGTEDVQVRLCDIASGAFSHTLSGHRDGVMSVEWSTSSEWVLYTGGCDGAIRFWDIRRAGCFRVLDQSQTQLGFRPPILKRTAVGSKLSSVAKSSLGGQNRLKTLQSKQTGSQSVKGSSSAKASVEKSRQKRIHPGMLSTLDRATAHYGAVTGLKATNDGMYLLSAGSDSRIRLWDIESGRNTLVNFETGRIQTNKGIQLDTSDDPALVFVPCMKTVKVAFGMWSGRTTLMLRGHYESVNTCCFNSNDQELYTSGSDRQILVWSPGGTVEDEMVQDEVAEDKDNWSD | failed
MWGQMRNRNWRSRALCTVVATSLLALGGPLLSATAAGGPNIAVGDATAASSSHGEYGAANITDGNQGTYWQSGGGSLPQWVQTDLGATERIDEVVLRLPAGWESRDQTLSVQGSADGTGFSTLKTSATYAFDPGSGNTVTIAFPATQTRFVRVDITANTGWQAAQLSELEVHAAGESSVNLAAGRRLTASSSTGAYTPGNGNDGNKATYWESANNALPQWLQADLGSARRVNRVVLRLPDGWPARSQTLKIQASDNGSDFTDLTAAKAYTFDAAGGQSATVTFDAATARYVRVLVTANTGQPAAQISELEVYGPETGDTQAPTTPANLAFTEPATGQIRLTWNESSDDTAVTGYDVYANGDLLTSVAGDVTTYTDTRPAGTTVTYHVRAKDAAGNQSGDSNSVTRRADTGDTQAPTAPSNLALTEPVPGQVKLTWTASTDDRGVTGYDVYADNKLRKSVAGNVTTYTDTQPASANVTYFVRAKDAAGNESGDSNSVFRGGTMDGSNLAVGKPITASSHIHTYVAENANDNSTSTYWEGAAGGYPNTLTLKLGANADVDSVVLKLNPDAGWSRRTQHIEVLGRAQDASGLTSLVAARDYVFDPASGGNSVTIPVGERAADVQLKFTSNTGATAGQVAEFQVIGTPAPNPDLEVTGLTASPGSPVESDEITVSATVRNSGAADAPAGKVAVRLGDTKVATADVPALEAGAQRTVSASLGAREAGSYELSAVADEANEIIEQNETNNTYTRPDPLVVKPVQSSDLVAAAVTTSPSSPAAGDDVTFRVALRNQGTQDSAGGGHPVTLALVDSKGDTVKTLTGTHSGVIAAGSTAPAVSLGTWKAANGSYSLKVTVADDANELPVKRENNTSTQPLFVGRGANMPYDMYEAEDGTVGGGATVVGPNRTIGDIAGEASGRKAVHLDRTGEYVEFTTKADTNTLVTRFSIPDAPGGGGIDATLDVYVDGVMKKALPLTSKYAWLYGAEASPGNSPGAGAPRHIYDEAHIMLGETVPAGSTIRLQKDAANTSDYAIDFVNLEQVSATANPDPAAYAVPAGFTHQDVQNALDKVRMDTSGKLVGVYLPPGDYQTSSKFQVYGKAVKVVGAGPWFTKFHAPTTQDNTDIGFRAEASAKGSTFANFAYFGNYTSRIDGPGKVFDFSNTSDIVIDNIWNEHMVCLYWGANTDRMTIRNSRIRNMFADGINMTNGSTDNLVSNNDARATGDDSFALFSAIDAGGADMKNNLYENLTTTLTWRAAGLAVYGGYNNTFRNIHIADTLVYSGITISSLDFGYPMNGFGTDPTTFENVSIVRAGGHFWGGQTFPGIWVFSASKVFQGIRVNNVDIVDPTYSGIMFQTNYVGGQPQFPIKDTVFTDVSVTGAHKSGDEFDAKSGFGLWANEMPESGQGPAVGEVTFNGLALGDNAVDIRNTTSTFKIIRNP | failed
MWGYVHLISWVAIVVLTVTALLIYSKSVKGFTMLQMINRVFYILVILSGIMMVQYSVKESWILAIFKILMGIIVIGVVEMLLSYRKQQKPTGMFLMIFIIVVVITVSLGFYLSGGYPLFN | failed
MWIQVRTIDGSKTCTIEDVSRKATIEELRERVWALFDVRPECQRLFYRGKQLENGYTLFDYDVGLNDIIQLLVRPD | not failed
MWKDLTEPLPEACAEGLEIRVVKSPEELADYAAVLSANWNPPAETVQRFYTEAAEYALRKNSPALYLVGYAGNRAVCSAEAFIHASVVGIYNISTLEHKRRRGYGGAITLATLHTARNAGCDTAVLQASEDGEPVYRKLGFTDCGRFTEYSL | failed
MWKRASRRAGLRRRAVAQPVPPAELGGTAFSSVLEQLELECRAMVSYALKQGLAMSPDLPGRLAELRVMPGASLHGESGARELAGLHRQLVRAIQPATPQAVVLIERERLRGGWLRWLGPIPLIRTLTLTSVGCLASVVGLAMSSLVNERNITLGFLDSSGSTLGWNVMFILACAGLGAAFSALFQAHRYVADATYDPRFDSSYAARMILGLIAG | failed
MWKRGKISTQLDDDEFRAGMRKAQVIDVREKKEFDAGHILGARNIPYSQMKNRTQELRSDLPVYLYDQGRTFSGRAAMLLSKKGFTQLYILKNGYQRWTGKTKKTKYLEHHHHHH | not failed
MWMKDPVARPLSPTRLQPALPPEAQSVPELEEVARVLAEIPRPLKRRGSMEQAPAVALPPTHKKQYQQIISRLFHRHGGPGPGGRSQSCPPSLRDLRPGQGPLLLPHQLPFHRPAPSQSSPPEQPQSMEMRSVLRKAGSPRKARRARLNPLVLLLDAALTGELEVVQQAVKEMNDPSQPNEEGITALHNAICGANYSIVDFLITAGANVNSPDSHGWTPLHCAASCNDTVICMALVQHGAAIFATTLSDGATAFEKCDPYREGYADCATYLADVEQSMGLMNSGAVYALWDYSAEFGDELSFREGESVTVLRRDGPEETDWWWAALHGQEGYVPRNYFGLFPRVKPQRSKV | not failed
MWNIATAAATLLVAFAATRAYAADIGYLAPPGVAANEFPSPQRPVARIVSPRRASEEHRDALNEAGQIARVLELKPGMTVGDIGAGSGYHTVRLSYLVAPAGSVVAQDVTRDYLIELARRTKLLKLTNVQFALGEPHDPRLPASSLDAAILVHMYHEIAQPYAFLYNLAPALKQGARVGIVDLELPTSKHGTPIELLRCELTAVGYREVATYKLEGDGGYLAVFSPPEVAGRKSPRDIVACRDPAGTR | failed
